Data published in publication PMC4401514.

Molecular target: activated Cry1Ac toxin of Bacillus thuringiensis subsp. kurstaki HD73 (Bacillus thuringiensis subsp. kurstaki HD73) (UniProt P05068)
Experiment: SPR; BIAcore 3000; Cry1Ac immobilised on CM5 chip by amine coupling; HaALP1f injected at 31.25-500 nM; HBS (10 mM HEPES, 150 mM NaCl, 0.005% Tween20, pH 7.4), 40 ul/min; 1:1 Langmuir model; apparent rate constants

## HaALP1f, his-tagged fragment of alkaline phosphatase HaALP1 from Helicoverpa armigera (from UniProt B4Z1D6 192-451) (domain or fragment)
  Kd: 7.58 nM
  koff: 0.00248 s⁻¹
  kon: 327000 M⁻¹ s⁻¹
